Target: LlaKI restriction endonuclease (Lactococcus lactis KLDS4 (endogenous))
Test: SEC; Sephadex G-200 10/30 column, buffer B-100 (10 mM Tris-HCl pH 7.5, 1 mM EDTA, 10 mM 2-Mercaptoethanol, 100 mM NaCl), 0.5 mL/min; calibrated with protein standards; LlaKI found by assay of cleavage activity of the fractions; native about 112 kDa against 50 kDa denatured

LlaKI restriction endonuclease (enzyme)
stoichiometry N: 2

— PMC4392985
